The results in this text go back to patent publication US20260108608A1 (GC CELL, published 2026).

This assay addresses T1, CD5 on CD5-positive tumor cell lines (CCRF-CEM, RPMI-8402_Luc / RPMI-8402-Luciferase, RPMI-8402) (human, UniProt P06127 25-495).
T1 sequence (looked up): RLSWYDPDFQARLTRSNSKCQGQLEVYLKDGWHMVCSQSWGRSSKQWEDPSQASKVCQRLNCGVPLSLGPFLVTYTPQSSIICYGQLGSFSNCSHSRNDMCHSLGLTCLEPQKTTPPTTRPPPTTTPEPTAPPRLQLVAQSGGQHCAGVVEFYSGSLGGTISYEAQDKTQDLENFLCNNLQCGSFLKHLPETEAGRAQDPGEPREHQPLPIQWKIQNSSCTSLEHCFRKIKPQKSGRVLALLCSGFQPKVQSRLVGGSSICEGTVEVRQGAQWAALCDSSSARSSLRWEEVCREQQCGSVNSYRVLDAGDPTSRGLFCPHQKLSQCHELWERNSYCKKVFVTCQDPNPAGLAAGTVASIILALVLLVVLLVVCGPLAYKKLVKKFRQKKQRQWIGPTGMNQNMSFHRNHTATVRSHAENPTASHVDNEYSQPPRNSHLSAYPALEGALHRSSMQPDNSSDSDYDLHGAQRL
In words: cell-based or functional assay.

B1: CD5 CAR (fourth generation), chimeric antigen receptor with anti-CD5 scFv, expressed on cord blood-derived NK cells (receptor)
chain: EIQLVQSGGGLVKPGGSVRISCAASGYTFTNYGMNWVRQAPGKGLEWMGWINTHTGEPTYADSFKGRFTFSLDDSKNTAYLQINSLRAEDTAVYFCTRRGYDWYFDVWGQGTTVTVSSGGGGSGGGGSGGGGSDIQMTQSPSSLSASVGDRVTITCRASQDINSYLSWFQQKPGKAPKTLIYRANRLESGVPSRFSGSGSGTDYTLTISSLQYEDFGIYYCQQYDESPWTFGGGTKLEIKAKPTTTPAPRPPTPAPTIASQPLSLRPEACRPAAGGAVHTRGLDFACDFWVLVVVGGVLACYSLLVTVAFIIFWVRSKRSRLLHSDYMNMTPRRPGPTRKHYQPYAPPRDFAAYRSERVQPLEENVGNAARPRFERNKRVKFSRSADAPAYQQGQNQLYNELNLGRREEYDVLDKRRGRDPEMGGKPRRKNPQEGLYNELQKDKMAEAYSEIGMKGERRRGKGHDGLYQGLSTATKDTYDALHMQALPPR
For B1, the “expression of CD107a and cytokines (IFN-γ and TNF-α) in NK cells co-cultured with CCRF-CEM and RPMI-8402_Luc, CD5 CAR-NK against CBNK” value was at least 2 fold.
